± gives the uncertainty stated by the source.
Assay: abundance fitness (aPCA) (normalised: wild type 0, dead -1); higher = more abundant; growth selection in yeast, the domain comes from the species named
Details: Homo sapiens

Row | Substance | abundance fitness
1 | Scaffold attachment factor B1 R29H, Q15424 | -0.262 ± 0.088
2 | Scaffold attachment factor B1 R29I, Q15424 | -0.019 ± 0.062
3 | Scaffold attachment factor B1 R29K, Q15424 | -0.086 ± 0.083
4 | Scaffold attachment factor B1 R29L, Q15424 | -0.134 ± 0.048
5 | Scaffold attachment factor B1 R29M, Q15424 | 0.03 ± 0.077
6 | Scaffold attachment factor B1 R29N, Q15424 | -0.408 ± 0.1
7 | Scaffold attachment factor B1 R29P, Q15424 | -0.364 ± 0.063
8 | Scaffold attachment factor B1 R29Q, Q15424 | -0.222 ± 0.089
9 | Scaffold attachment factor B1 R29S, Q15424 | -0.189 ± 0.063
10 | Scaffold attachment factor B1 R29T, Q15424 | -0.141 ± 0.062
11 | Scaffold attachment factor B1 R29V, Q15424 | -0.08 ± 0.059
12 | Scaffold attachment factor B1 R29Y, Q15424 | -0.056 ± 0.076
13 | Scaffold attachment factor B1 R30A, Q15424 | -0.289 ± 0.066
14 | Scaffold attachment factor B1 R30C, Q15424 | -0.409 ± 0.1
15 | Scaffold attachment factor B1 R30D, Q15424 | -0.384 ± 0.092
16 | Scaffold attachment factor B1 R30E, Q15424 | -0.252 ± 0.06
17 | Scaffold attachment factor B1 R30G, Q15424 | -0.31 ± 0.061
18 | Scaffold attachment factor B1 R30H, Q15424 | -0.16 ± 0.063
19 | Scaffold attachment factor B1 R30I, Q15424 | -0.33 ± 0.073
20 | Scaffold attachment factor B1 R30K, Q15424 | -0.037 ± 0.066
21 | Scaffold attachment factor B1 R30L, Q15424 | -0.218 ± 0.051
22 | Scaffold attachment factor B1 R30M, Q15424 | -0.206 ± 0.077

Row | Substance | abundance fitness
23 | Scaffold attachment factor B1 R30N, Q15424 | -0.411 ± 0.1
24 | Scaffold attachment factor B1 R30P, Q15424 | -0.545 ± 0.094
25 | Scaffold attachment factor B1 R30Q, Q15424 | -0.25 ± 0.082
26 | Scaffold attachment factor B1 R30S, Q15424 | -0.133 ± 0.062
27 | Scaffold attachment factor B1 R30V, Q15424 | -0.493 ± 0.052
28 | Scaffold attachment factor B1 R30W, Q15424 | -0.444 ± 0.053
29 | Scaffold attachment factor B1 R30Y, Q15424 | -0.383 ± 0.086
30 | Scaffold attachment factor B1 R35A, Q15424 | -0.112 ± 0.059
31 | Scaffold attachment factor B1 R35C, Q15424 | -0.4 ± 0.073
32 | Scaffold attachment factor B1 R35D, Q15424 | -0.12 ± 0.08
33 | Scaffold attachment factor B1 R35E, Q15424 | -0.195 ± 0.083
34 | Scaffold attachment factor B1 R35F, Q15424 | -0.59 ± 0.082
35 | Scaffold attachment factor B1 R35H, Q15424 | -0.475 ± 0.089
36 | Scaffold attachment factor B1 R35I, Q15424 | -0.556 ± 0.08
37 | Scaffold attachment factor B1 R35K, Q15424 | -0.217 ± 0.083
38 | Scaffold attachment factor B1 R35L, Q15424 | -0.316 ± 0.063
39 | Scaffold attachment factor B1 R35M, Q15424 | -0.147 ± 0.072
40 | Scaffold attachment factor B1 R35P, Q15424 | -0.288 ± 0.081
41 | Scaffold attachment factor B1 R35Q, Q15424 | -0.136 ± 0.077
42 | Scaffold attachment factor B1 R35S, Q15424 | -0.136 ± 0.068
43 | Scaffold attachment factor B1 R35T, Q15424 | 0.014 ± 0.064
44 | Scaffold attachment factor B1 R35V, Q15424 | -0.28 ± 0.054

Row | Substance | abundance fitness
45 | Scaffold attachment factor B1 R35W, Q15424 | -0.645 ± 0.079
46 | Scaffold attachment factor B1 R40A, Q15424 | -0.272 ± 0.065
47 | Scaffold attachment factor B1 R40C, Q15424 | -0.642 ± 0.085
48 | Scaffold attachment factor B1 R40D, Q15424 | -0.642 ± 0.096
49 | Scaffold attachment factor B1 R40F, Q15424 | -0.822 ± 0.08
50 | Scaffold attachment factor B1 R40G, Q15424 | -0.732 ± 0.056
51 | Scaffold attachment factor B1 R40I, Q15424 | -0.179 ± 0.07
52 | Scaffold attachment factor B1 R40K, Q15424 | -0.416 ± 0.079
53 | Scaffold attachment factor B1 R40L, Q15424 | -0.219 ± 0.055
54 | Scaffold attachment factor B1 R40M, Q15424 | -0.329 ± 0.075
55 | Scaffold attachment factor B1 R40N, Q15424 | -0.786 ± 0.12
56 | Scaffold attachment factor B1 R40P, Q15424 | -0.763 ± 0.074
57 | Scaffold attachment factor B1 R40Q, Q15424 | -0.152 ± 0.06
58 | Scaffold attachment factor B1 R40S, Q15424 | -0.353 ± 0.062
59 | Scaffold attachment factor B1 R40T, Q15424 | -0.319 ± 0.073
60 | Scaffold attachment factor B1 R40V, Q15424 | -0.123 ± 0.067
61 | Scaffold attachment factor B1 R40Y, Q15424 | -0.549 ± 0.077
62 | Scaffold attachment factor B1 R44A, Q15424 | -0.029 ± 0.061
63 | Scaffold attachment factor B1 R44D, Q15424 | -0.156 ± 0.1
64 | Scaffold attachment factor B1 R44E, Q15424 | -0.121 ± 0.091
65 | Scaffold attachment factor B1 R44F, Q15424 | -0.27 ± 0.081
66 | Scaffold attachment factor B1 R44G, Q15424 | -0.096 ± 0.064

Row | Substance | abundance fitness
67 | Scaffold attachment factor B1 R44H, Q15424 | -0.202 ± 0.072
68 | Scaffold attachment factor B1 R44I, Q15424 | -0.13 ± 0.071
69 | Scaffold attachment factor B1 R44L, Q15424 | -0.107 ± 0.053
70 | Scaffold attachment factor B1 R44P, Q15424 | -0.715 ± 0.075
71 | Scaffold attachment factor B1 R44Q, Q15424 | -0.074 ± 0.071
72 | Scaffold attachment factor B1 R44S, Q15424 | -0.096 ± 0.065
73 | Scaffold attachment factor B1 R44T, Q15424 | -0.024 ± 0.062
74 | Scaffold attachment factor B1 R44V, Q15424 | -0.092 ± 0.054
75 | Scaffold attachment factor B1 R46A, Q15424 | -0.745 ± 0.069
76 | Scaffold attachment factor B1 R46C, Q15424 | -0.445 ± 0.1
77 | Scaffold attachment factor B1 R46D, Q15424 | -0.832 ± 0.071
78 | Scaffold attachment factor B1 R46E, Q15424 | -0.954 ± 0.1
79 | Scaffold attachment factor B1 R46F, Q15424 | -0.545 ± 0.069
80 | Scaffold attachment factor B1 R46G, Q15424 | -0.84 ± 0.053
81 | Scaffold attachment factor B1 R46H, Q15424 | -0.423 ± 0.12
82 | Scaffold attachment factor B1 R46I, Q15424 | -0.642 ± 0.072
83 | Scaffold attachment factor B1 R46K, Q15424 | -0.602 ± 0.11
84 | Scaffold attachment factor B1 R46L, Q15424 | -0.491 ± 0.063
85 | Scaffold attachment factor B1 R46M, Q15424 | -0.384 ± 0.1
86 | Scaffold attachment factor B1 R46N, Q15424 | -0.819 ± 0.15
87 | Scaffold attachment factor B1 R46P, Q15424 | -0.937 ± 0.12
88 | Scaffold attachment factor B1 R46Q, Q15424 | -0.734 ± 0.089

Row | Substance | abundance fitness
89 | Scaffold attachment factor B1 R46S, Q15424 | -0.763 ± 0.068
90 | Scaffold attachment factor B1 R46T, Q15424 | -0.845 ± 0.11
91 | Scaffold attachment factor B1 R46V, Q15424 | -0.797 ± 0.074
92 | Scaffold attachment factor B1 R46W, Q15424 | -0.8 ± 0.062
93 | Scaffold attachment factor B1 R46Y, Q15424 | -0.463 ± 0.064
94 | Scaffold attachment factor B1 R60A, Q15424 | -0.22 ± 0.054
95 | Scaffold attachment factor B1 R60C, Q15424 | -0.676 ± 0.1
96 | Scaffold attachment factor B1 R60D, Q15424 | -0.659 ± 0.13
97 | Scaffold attachment factor B1 R60E, Q15424 | -0.551 ± 0.089
98 | Scaffold attachment factor B1 R60F, Q15424 | -0.801 ± 0.053
99 | Scaffold attachment factor B1 R60G, Q15424 | -0.464 ± 0.075
100 | Scaffold attachment factor B1 R60I, Q15424 | -0.551 ± 0.11
101 | Scaffold attachment factor B1 R60K, Q15424 | -0.099 ± 0.065
102 | Scaffold attachment factor B1 R60L, Q15424 | -0.335 ± 0.053
103 | Scaffold attachment factor B1 R60M, Q15424 | -0.38 ± 0.065
104 | Scaffold attachment factor B1 R60N, Q15424 | -0.326 ± 0.11
105 | Scaffold attachment factor B1 R60P, Q15424 | -0.492 ± 0.072
106 | Scaffold attachment factor B1 R60Q, Q15424 | -0.445 ± 0.081
107 | Scaffold attachment factor B1 R60S, Q15424 | -0.321 ± 0.076
108 | Scaffold attachment factor B1 R60T, Q15424 | -0.268 ± 0.081
109 | Scaffold attachment factor B1 R60V, Q15424 | -0.432 ± 0.069
110 | Scaffold attachment factor B1 R60W, Q15424 | -1.17 ± 0.065
